Measured values from PMC10588329.
One block for each substance: values may come before it.

Key:
[1] = target: CaMKII^L308BzF (human) (UniProt Q9UQM7); assay: mass photometry
[2] = target: CaMKII^L308BzF (human) (UniProt Q9UQM7); assay: cross-linking
[3] = target: Human wild-type CaMKII α (CaMKII^WT) (human) (UniProt Q9UQM7); assay: mass photometry
[4] = target: CaMKII^L308BzF (human) (UniProt Q9UQM7); assay: SEC

Sequence of UniProt Q9UQM7 (Q9UQM7 6-478): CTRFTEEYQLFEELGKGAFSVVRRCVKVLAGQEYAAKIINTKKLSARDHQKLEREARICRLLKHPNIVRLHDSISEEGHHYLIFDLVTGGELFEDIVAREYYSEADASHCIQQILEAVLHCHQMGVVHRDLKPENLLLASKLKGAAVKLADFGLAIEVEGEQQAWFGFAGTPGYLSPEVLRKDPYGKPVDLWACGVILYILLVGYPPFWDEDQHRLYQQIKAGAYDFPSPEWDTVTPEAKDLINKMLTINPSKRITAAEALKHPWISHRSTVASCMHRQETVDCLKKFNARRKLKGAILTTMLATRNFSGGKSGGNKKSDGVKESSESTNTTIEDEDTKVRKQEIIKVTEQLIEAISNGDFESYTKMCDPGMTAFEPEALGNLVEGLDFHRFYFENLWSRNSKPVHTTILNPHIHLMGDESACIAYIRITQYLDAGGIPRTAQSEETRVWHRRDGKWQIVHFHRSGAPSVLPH

- stoichiometry N (Calmodulin per CaMKII dodecamer) [1]: 12
- Kd [2]: 2.5 µM
Substance: His-tagged Calmodulin (Calbiochem) (from UniProt P0DP23 1-149) (natural protein)

- stoichiometry N (Calmodulin per CaMKII dodecamer) [3]: 5
- stoichiometry N (Calmodulin per CaMKII holoenzyme) [3]: 6
Substance: Human Calmodulin (self-made) (from UniProt P0DP23 1-149) (natural protein)

- stoichiometry N [1]: 12 subunits
- stoichiometry N [4]: 12 subunits
Substance: CaMKII^L308BzF (from UniProt Q9UQM7 6-478) (enzyme)
